According to patent US20200191797A1:

Tests used:
[1] = target: IgE of pooled serum samples (human); experiment: cross-inhibition ELISA; inhibitor 1 ug/ml with pooled sera; C. idella parvalbumin on the plate
[2] = target: IgE of pooled serum samples (human); experiment: cross-inhibition ELISA; inhibitor 50 ug/ml with pooled sera; C. idella parvalbumin on the plate
[3] = target: IgE of pooled serum samples (human); experiment: cross-inhibition ELISA; C. idella parvalbumin on the plate; inhibitor concentration not stated

| % inhibition of IgE binding [1] [%] | % inhibition of IgE binding [2] [%] | % inhibition of IgE binding [3] [%] | Binder |
| --- | --- | --- | --- |
| 40 | 50 | – | recombinant cod allergen Gad m 1 (cod parvalbumin) (protein, UniProt Q90YK9 1-109, looked up, not shown: small tags and cut ends) MAFAGILNDADITAALAACKAEGSFDHKAFFTKVGLAAKSPADIKKVFEIIDQDKSDFVEEDELKLFLQNFSAGARALSDAETKVFLKAGDSDGDGKIGVDEFGAMIKA |
| – | – | 10 | recombinant aldolase A of grass carp Ctenopharyngodon idella (enzyme, not shown: small tags and cut ends) MPHAYPFLTPEQKKELSDIALRIVAPGKGILAADESTGSVAKRFQSINAENTEENRRLYRQLLFTADDRVKPCIGGVILFHETLYQKADDGKLFSQLLKERGMVVGIKVDKGVVPLAGTNGETTTQGLDGLYERCAQYKKDGADFAKWRCVLKITSTTPSRLAIIENANVLARYASICQMHGIVPIVEPEILPDGDHDLKRCQYVTEKVLAAVYKALSDHHVYLEGTLLKPNMVTAGHSCSQKNTPQEIAMATVTALRRTVPPAVPGITFLSGGQSEEEATLNLNAMNKCPLHRPWALTFSYGRALQASALKAWGGKKENGKACQEEFIKRALNNSLACVGKYVSSGDKGAAAGESLFVANHAY |
